# Results reported in the DeepSol protein solubility set.
# Assay: soluble on expression in E. coli; label from the status in PepcDB or PDB records
row,Sequence,soluble on expression in E. coli
1,PFMDQSGGGVTFCGGEPLLHPEFLIDILKRCGQQGIHRAVDTTLLARKETVDEVMRNCELLLIDLKSMDSTVHQTFCDVPNELILKNIRRVAEADFPYYIRIPLIEGVNADEKNIKLSAEFLASLPRHPEIINLLPYHDIGKGKHAKLGSIYNPKGYKMQTPSEEVQQQCIQILTDYGLKATIGG,soluble
2,MSLIFNKNCNVNKETQIEAFAIKNHDKKFVYPMGNIIGVKANTDGVLVLGYEEEDVDYIGGIQIGDNIVKIDNKRIKNSQDVSEILNKIKKSKVEVTFERKNKYKTEVIETKKENGKYKLGLWVRDKISGIGTMTFYDPSMEKFKAIGHAIKDSDTNELLKIKQGYIYKPEQLKIVKASNEKVGKIKGDFNDSNLMGNFSNNSELGISGNITENHNKEFNVANKEKQLIEVGRPQDVKIGDAVILFEDKNKNITSYDIKIESIVYDKGNYRDMVIKVVDDKLLEYTGGIVQGMSGAPIIQNNKIIGAITHVFRDNPKKGYGIFIDEMIKLEGHHHHHH,soluble
3,MGEIQVVAFRLGDEEFCLEISKVREIKEMMPITRVPNAPDFVEGVINLRGQITTVINLKKLLGYYDDGDLSNKKIIIAEVNGEIVGVIVDSVSDVITLTEDQIEQPPKTLASRVDMKAIKGIAKINNGERLLIMLDLDKLIGESF,soluble
4,MSNENKTIHDFELNLICDFFSNMERQGPGSPEVTLKALSFIDNLTEKSLIADIGCGTGGQTMVLAGHVTGQVTGLDFLSGFIDIFNRNARQSGLQNRVTGIVGSMDDLPFRNEELDLIWSEGAIYNIGFERGLNEWRKYLKKGGYLAVSECSWFTDERPAEINDFWMDAYPEIDTIPNQVAKIHKAGYLPVATFILPENCWTDHYFTPKVAAQKIFLTKYAGNKIAEEFSMLQSIEEELYHKYKEYYGYTFFIAKKIRLLEHHHHHH,soluble
5,MGSDKIHHHHHHLDLSPEDYYGSGNFWTKEAQVEGYMNGLHNNLRSSYTMFYVLGEARGGTSRYGTSSLGTSMSYSDPIKNNMLTKDNTGISNWYDLYGRIMQVNHFISEVSNGCSFLSESKKGFYLGQAYGLRALYYFMLYKTYGGVPLITDVKVLEGGKISADALYTERSTPETILKFIKSDLEASELNFGNNVTIDRAMWTKYATLMLKAEVYMWSAKVTTGDHQATGNSDLAIAQTALQPLINQFSLLDNFSEVFSKKANDEIIFAIRFKDGEATNWAGPFIYYGNIFEGQRYGRDGKLMQDTLDLKGTVGQFLHEYKKALWDSYDDEDMRRDATFMDHYGSAQKEGFGIAMKKGIGSVNSNNQRIFDTDIIVYRYADVLLMMAEIENALSGKCANYVNEVRKRAYGKNWHPQFAYTDGSYADNELTILHERDKEFVWEGKRWFDVVRMHDANGKSLAFSVAANYPNNETPDERVPLIKESEAHKLLWPIDVNTLNNDPKLEQTPGYDK,not soluble
6,MSLGNSYAGQLKTTRFEEVLHNSIEASLRSNNLVPRPIFSQLYLEAEQQLAALEGGSRVDNEEEEEEGEGGLETNGPPNPFQLHPLPEGCCTTDGFCQAGKDLRLVSISNEPMDVPAGFLLVGVKSPSLPDHLLVCAVDKRFLPDDNGHNALLGFSGNCVGCGKKGFCYFTEFSNHINLKLTTQPKKQKHLKYYLVRNAQGTLTKGPLICWKGSEFRSRQIPASTCSSSLFPALESTAAFPSEPVPGTNPSILMGAQQAGPASDHPSLNAAMGPAVFNGKDSPKCQQLAKNNLLALPRPSALGILSNSGPPKKRHKGWSPESPSAPDGGCPQGGGNRAKYESAGMSCVPQVGLVGPASVTFPVVASGEPVSVPDNLLKICKAKPVIFKVFVNGATQMVALGPAEEGHHHHHH,not soluble
7,MKNLINWFEIPVTDMARAIAFYEQVMQISLRRETMDGADLAVFPYAEPGPGGALIKQDDVAPVAQGVVIYLHTADLLASIERVVLAGGKCVLEPMVPGDDIGTIALFIDSEGNRIGLHQPALEHHHHHH,not soluble
8,MGSDKIHHHHHHMMLTTKLIYCCLVSIVLHPINNLNPKPYISLFNLQGILLPTQFSHSLTSLDAFAPRLLAWFEINGRHDLPWQQHQTDTPNPYIVWLSEVMLQQTQVTTVLPYFARFMASFPTVQDLAAAEWDTVAEHWAGLGYYARARNLHKGAKQLVEVIDETGEYPTTLAGWEAISGVGPSTAGAIMAMGLHRYGVICDGNVKRVLTRWAAIDGDITKSATTKELWALAERLTPKENSGLFAQAMMDMGATLCTRSKPACLLCPLQDDCLAHAQGRETDYPVKAKKQPKPSKFSNALLIENENGEILWLQRPDNGIWGGLWSLPLAFIEKISGKVAVKDADKNKNKELIAANDNQLLEVASNEKVYETEFTTAEQIINEWINKNELVAKSVNDTLLDDSPIKHSLTHFHWYLTPQTVNLNTKQAQEITEALQAGEININWLNADDAQATLGLPKAMVKILE,not soluble
9,MGHHHHHHSHMEYSYIPSFALYNNADMFQFFPRNKRLSTHQKSCLDEHARKMAVFMMKRQEEYRYYENLANQEQFSDDAHFSDNGMDSGFCSGATSTGQSASTSPAPVQLIPNPFFDPEAKTQSPVKLVDNPELFMESKKKSARISA,not soluble
10,MSLGISNAIDNSVRARVLGIKTEFRNFNTGRTFFLPQHVALLGQGNTAATYELTPFRATSAAQVGQRFGFGSPLHLAALQLLPDNNDGLRSIPLTIFPMGDNDAGVAAEGVLDLSGTASATATVRVRIGSQRSSLVTIPTGTTAEQAAALLVAGIQGNPFMPMTAAVDGTNANEVDVTAKWQGLSGNDLVVSIEGSIPGITVAITQPTGGAADPEVADTLALFGENVWYTQIVSCFNTANTDALDAFETFGEGRWDPILRRPLAVFTGTNETDPNTLAAIGDARRAQRTNLVTPVPGAQNLPCEIAAAWVARVARSANNDPASDFARLTLPGLTPGTDAQQWTHTQRDLLVKAGISTSIVRDGVAEISDTVTTYHPTGEVNPGYLFYKDTVKASNVLFNLDLIFNTREWDGAPLIPDDQPTTNARAKRPKDAVAVLSVLANNLGLDAIISDVPFTLENIRASINDQNPNRLDIIFPAKNSGNANIISADYFFGFFLGTEGHHHHHH,soluble
11,MNYIQLQRFNMSKVASIVDVLQGKVAIGETVTVRGWVRTRRDSKAGLSFLAVYDGSCFDPIQAIINNDIENYESEILRLTTGCSVIVTGKVVESPAEGQAVELQAEKVEVTGFVEDPDTYPMAAKRHSIEYLREVAHLRPRTNIIGAVARVRHCLSQAIHRFFHEQGFYWVATPLITASDTEGAGEMFRVSTLDLENLPRSENGKVDFSQDFFGKESFLTVSGQLNGETYACALSKIYTFGPTFRAENSNTTRHLAEFWMVEPEVAFATLADNAKLAEDMLKYVFRAVLAERKDDLQFFEKHVDKDVITRLENFVNSDFAQIDYTDAIDVLLKSGKKFEFPVSWGIDLSSEHERFLAEEYFKSPVVVKNYPKDIKAFYMRLNDDEKTVAAMDVLAPGIGEIIGGSQREERLEVLDKRMEEMGLNPDDYWWYRDLRKYGSVPHSGFGLGFERLIVYVTGVQNIRDVIPFPRAPRNANFLEHHHHHH,soluble
12,MSLDSLNLNKHISGQFNAELESIRTQVMTMGGMVEQQLSDAITAMHNQDSELAKRVVEGDHQVNMMEVAIDEACVRIIAKRQPTASDLRLVMAIIKTIAELERIGDVADKICRTALEKFSQQHQPLLVSLESLGRHTVQMLHDVLDAFARMDLDEAVRIYREDKKVDQEYEGIVRQLMTYMMEDSRTIPSVLTALFCARSIERIGDRCQNICEYIFYFVKGQDFRHVGGDELDKLLAGKDPKEGHHHHHH,soluble
13,VGSEVSDKRTCVSLTTQRLPVSRIKTYTITEGSLRAVIFITKRGLKVCADPQATWVRDVVRSMDRKSNTRNNMIQTKPTGTQQSTNTAVTLTG,soluble
14,MKEKIPFYNEKEFNEMMKKTKKGTFSGWYIINPENNSVEFSGSFNRQFKLNKPIIPVNTEYVTRKEFNEYKDSNDQRLIKIETTLTAQGEQINKLTQTVEKQGEQIRELQVEQKAQGEQIKAQGETLKLILQTLQKMSDRLDKIDPPKLEHHHHHH,not soluble
15,MGSDKIHHHHHHMEQQIPFSYVIISPENATEKEGYMISTIDKCGFFFCQKGEVEVALNDKSYLISKGSVCIYMTGSLLRIQRISKDIKGIMLEVDLNYIIPIVNKIVNSENLLYLRENPCFSITEYQYNYLEQLIKALQQRMDIKAHDIPLQRQHLISELIKSWGQTLCYELLNVYFTNQPLKPLSQDKKDKIFQNFVITLFRYYQQERDVTFYASKQYLSSRYFSAVIKEKSGSTALQWIVQMVITEAKQLLENSDLTIKEIATKLNFPTQSFFGKYFKQYVGVSPKEYRNKQIRQLPF,not soluble
16,SREAVTVQVGGFANYVGSYFWNFQDELLGLADDPDADPVFKNAALDMDVLYRSGETHQGVATYCPRLVSVDSRGSLGSLSSSGNLGQSSTAADQLNVATWSGNVTRSVSKPHGRNLFLQSLVEEGQNPSTSNGGSNSQKSVEYKDLIECLENGINFWTDYSKVHYHPQSLYELYGSWTDFDKFDNYGSAQEVVSDWSQIEEMNERLRFFVEECDHIQGIQFIVDDSGGFSSVAAQFLENIADDYTNTLVLLYCVRDPMTLGPSRRNQRESIMRALHDAVSFSKLSSFCNLMVPIGPPSLSRSCMSPYLYIQDEKPFHASAVCAAAIHSITVPFRLQRTGPSSDLAHSSGNLDIGELVHILSDQGRQNMVTALDVAMPAPSLTDRDAMGNIEMKLHSLTPEISDEDEDPYSVESLVVHGALDRGGQRTSISQVKDSVCSVYEARETKPKFSHLSASLCPLPVPLPFPSIFRGNIGRHGEILSDHTEESQPKGSLDIESIPMAARLRSSSAVLPFIERRSGSLQKHGVARGAIGSLVLHDWGFGREEVEDMAEHLAKLLGPFHPEMDLTSDSD,soluble
17,MASPLRFDGRVVLVTGAGGGLGRAYALAFAERGALVVVNDLGGDFKGVGKGSSAADKVVEEIRRRGGKAVANYDSVEAGEKLVKTALDTFGRIDVVVNNAGILRDRSFSRISDEDWDIIQRVHLRGSFQVTRAAWDHMKKQNYGRIIMTASASGIYGNFGQANYSAAKLGLLGLANTLVIEGRKNNIHCNTIAPNAGSRMTETVMPEDLVEALKPEYVAPLVLWLCHESCEENGGLFEVGAGWIGKLRWERTLGAIVRKRNQPMTPEAVRDNWVKICDFSNASKPKSIQESTGGIIEVLHKIDSEGISQNHTGQVASAD,soluble
18,MRRSAAPSQLQGNSFKKPKFIPPGRSNPGLNEEITKLNPDIKLFEGVAINNTFLPSQNDLRICSLNLPSEESTREINNRDNCSGKYCFEAPTLATLDPPHTVHSAPKEVAVSKEQEEKSDSLVKYFSVVWCKPSKKKHKKWEGDAVLIVKGKSFILKNLEGKDIGRGIGYKFKELEKIEEGQTLMICGKEIEVMGVISPDDFSSGRCFQLGGGSTAISHSSQVARKCFSNPFKSVCKPSSKENRQNDFQNCKPRHDPYTPNSLVMPRPDKNHQWVFNKNCFPLVDVVIDPYLVYHLRPHQKEGIIFLYECVMGMRMNGRCGAILADEMGLGKTLQCISLIWTLQCQGPYGGKPVIKKTLIVTPGSLVNNWKKEFQKWLGSERIKIFTVDQDHKVEEFIKSIFYSVLIISYEMLLRSLDQIKNIKFDLLICDEGHRLKNSAIKTTTALISLSCEKRIILTGTPIQNDLQEFFALIDFVNPGILGSLSSYRKIYEEPIILSREPSASEEEKELGERRAAELTCLTGLFILRRTQEIINKYLPPKIENVVFCRPGALQIELYRKLLNSQVVRFCLQGLLENSPHLICIGALKKLCNHPCLLFNSIKEKECSSTCDKNEEKSLYKGLLSVFPADYNPLLFTEKESGKLQVLSKLLAVIHELRPTEKVVLVSNYTQTLNILQEVCKRHGYAYTRLDGQTPISQRQQIVDGFNSQHSSFFIFLLSSKAGGVGLNLIGGSHLILYDIDWNPATDIQAMSRVWRDGQKYPVHIYRLLTTGTIEEKIYQRQISKQGLCGAVVDLTKTSEHIQFSVEELKNLFTLHESSDCVTHDLLDCECTGEEVHTGDSLEKFIVSRDCQLGPHHQKSNSLKPLSMSQLKQWKHFSGDHLNLTDPFLERITENVSFIFQNITTQATGT,soluble
